This passage reports stoichiometry N results from publication PMC4784663.

The target in this assay is Chicken Best1 residues 1–405 (GgBest1) (chicken). The assay is described as follows: crystal structure; GgBest1–Fab complex, hanging-drop vapour diffusion; P2_1 form in CYMAL-6 or CYMAL-6-NG, 0–60 mM NaCl, 50 mM sodium acetate pH 4.0, 5% PEG 4000, 20% glycerol; C2 form in DM, 120 mM NaCl, 50 mM Tris pH 8.5, 8.5% PEG 4000, 20% glycerol; sample supplemented with 50 mM GABA.

The term stoichiometry N denotes a count of units in the complex or per binding partner. The substance “Chicken Best1 residues 1–405 (GgBest1) (domain or fragment)” yielded a stoichiometry N of 5.
